The nanobody polyreactivity screen of Harvey et al. (2022)

Assay: yeast display, Sf9 membrane polyspecificity reagent, FACS + sequencing; frameworks hold sequencing errors
Procedure, shortened: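 Using colony PCR, genes from sorted yeast display clones were amplified, then sequenced on MiSeq at 2 × 250 and filtered by CDR length. The clones had been stained with 10% biotinylated, detergent-solubilized Sf9 membrane reagent for 1 hour at 4 °C and sorted by FACS into low and high (top ~1%) gates on anti-HA and streptavidin fluorescence. Polyreactivity labels come from the gate of origin.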

Row | Sequence | polyreactivity (PSR sort gate)
1 | QVQLQESGGGLVQAGGSLRLSCAASGSISGPHLMGWYRQAPGQEREFVAAINVGANTYYADNVKGRFTISRDNAKNTLYLQMNSLKPEDTAVYYCAAVYYGDIGHEYWGQGTQVTVSC | low polyreactivity
2 | QVQLQESGGGLVQAGGSLRLSCAASGSISNSAAKVWYRQAPGKERELVVSIGHGASSNYADSVKGRFTISRDNAKNTVYLQMNSLKPEDTAVYYCAAYPGFLDGFFYWGQSTQVTVSS | high polyreactivity
3 | QVQLQESGGGLVQAGGSLRLSCAASGSISRLDYMGWYRQPSGKERELVAAIDNGSTTYYADSVKGRLTISRDNAKYTVYLQMNSLKPEDTAVYFCAAVRGRGGTHAYWGQGTQVTVSG | low polyreactivity
4 | QVQLQESGGGLVQAGGSLRLSCAASGSISSRDAMGWYRQAPGKEREFVATIASGTTTYYADSVKGSFTISRDNAENTLYLQTNSLKPEDTAVYYCAAPTIQIYPFYYWGQGTQVTVSS | high polyreactivity
5 | QVQLQESGGGLVQAGGSLRLSCAASGTISDSGLMGWYRQAPVKERELVAGIRSGGITNYADSVKGRFTISRDNAKNTVYLQMNSLKPEDTAVYWGQGTQVTVSS | low polyreactivity
6 | QVQLQESGGGLVQAGGSLRLSCAASGTISQEDWMGWYRQAPGKEREFVAAIGLGSNTNYADSLKGRFSISRDPAKITVYLQMNSLKPEDTAVYYCAVSVWQYSDHVYRGQGTQVTVSS | low polyreactivity
7 | QVQLQESGGGLVQAGGSLRLSCAASGTISYAPHMGWYRQAPGKERELVAGITIGGTTYYADIVIGRFTISRDNAKNTVFLQMNSLSPGDTAVYYCAAHSEQYTPFYYWGQGTQVTVSS | low polyreactivity
8 | QVQLQESGGGLVQAGGSLRLSCAASGTISYAPHMGWYRQAPGTDSELVAGITIGGTTYYADSVKGRFTISRDNAKNTVYLQMNSLSPGDTAVYYCAAHSEQYTPFYYWGQGTQVTVSS | low polyreactivity
9 | QVQLQESGGGLVQAGGSLRLSCAASGTITVLYKMGWFRLAPGKEREFVASINYGTSTYYADSVKGRFTVSRDSAKNTVYLQMNSLKPEDTAVYYCAAAYRWQDVYRYWGQGTQVTVSS | low polyreactivity
10 | QVQLQESGGGLVQAGGSLRLSCAASGTITVLYKMVWFRQAPGKEREFVASINYGTSTYYADSVKGRFTVSRDSAKNTVYLQMNSLKPEDTAVYYCAAAYRWQDVYRYWGQGTQVTVSS | low polyreactivity
11 | QVQLQESGGGLVQAGGSLRLSCAASGTNFYKDDMGWYRQAPGKEREFVAGIDRGGTTNCAGSVKGRFTISRDNAKNTVYLQMISLKPEDTAVYYCAAYYPDIYPFIYRGQGTQVTVSS | high polyreactivity
12 | QVQLQESGGGLVQAGGSLRLSCAASGYIFPRIYMGWYRQAPGKEREFDAGISYDAITNYADSVKGRYTISLDNAKNTVYLQMNSLKPEDTAVYYCAVSYYGTPLFTYWGQGTQVTVSS | high polyreactivity
13 | QVQLQESGGGLVQAGGSLRLSCAASGYISFSGYIGRYRQAPGKEREFVDSITPGRSTYYADSVKGRFTISRDNAENTVYLQMNSLKPEDTAVYYCAADDSRTEQHAYWGQGTQVTVSS | high polyreactivity
14 | QVQLQESGGGLVQAGGSLRLSCAASGYISHADEMGWYRQAPGKEHELVASISNGGSTNYADSVKGRFTISRDNAKNTVYQQMNSLKSEYTAVYYCAALTGQVDIHYYWCQGTQVTVSS | low polyreactivity
15 | QVQLQESGGGLVQAGGSLRLSCAASGYISHADEMGWYRQAPGLEHELVASISNGGSTNYADSVKGLFTISRDNAKNTEYLQLNSLKSEDTAVYYCAAWTGQVDIHYYWGQGTQVTVSS | low polyreactivity
16 | QVQLQESGGGLVQAGGSLRLSCAASGYISYFVGMGWYRQAPGKEREFVASIADGSYTYYADSVKGRFTISRDNAKNTVYLQRNSLKPEDTAVYYCAVEDSWTYRFDYWGQGTQVTVSS | high polyreactivity
17 | QVQLQESGGGLVQAGGSLRLSCAASGYISYLDFMGWYRQAPGKERELVAGITTGATTNYADSVKGRFTISRDNAKNIVYHQMNSLKPEDTAVYYCAVIGGDTRGHPYWGQGSQVTVSS | low polyreactivity
18 | QVQLQESGGGLVQAGGSLRLSCAASSNNSTLDDMCWYRQAPGKEREFVASIGSGGITNYADSVKGRFTISRDNAKNTVYLQMNSLKPEDTAVYYCAVLNQAYTDLIYWGQGTQVTVSS | high polyreactivity
19 | QVQLQESGGGLVQAGGSLRLSCAASSNNSTLDVMGWYRQAPGKEREFVASIGSGGITNYADSVKGRFTISRDNAKNTVYLQMNSLKPEDTAVYYCAVLNQAYTDLIYWGQGTLVTVSS | high polyreactivity
20 | QVQLQESGGGLVQAGGSLRLSCASSGYISQSSVMGWYRQAPGKEREFVASISYGATTYYADSVKGRFTISRDNAKNTVYLQTNSPKPEDTAVYYCAVWVKRGFSHRYWGQGTQVTVSS | high polyreactivity
21 | QVQLQESGGGLVQAGGSLRLSCAVSGTIFFPLDMGWYRQAPGREREYVAAIAEGTSTYYADSVKGRFTISRDNAKNTVYPQMYSLKPEDTAVYYCAAYRSTPQQFHYWGQGTQVTVSS | high polyreactivity
22 | QVQLQESGGGLVQAGGSLRLSCSASGTISDSGLMGWYRQAPGKERELVAGISSGGITNDADSVNRRFTISRDNALFTVYLQMNSLKPEDTALYWGEGTQVTVSS | low polyreactivity

Row | Sequence | polyreactivity (PSR sort gate)
23 | QVQLQESGGGLVQAGGSLRLSSAASGTIFRFRYMGWHRQAPGKERELVAGINGGTTTYYADSVIGRFTISRDNAKNTVYLQMNSLKPDDTAVYNCAAGASRLTYYDYWGQGTQVTVSS | low polyreactivity
24 | QVQLQESGGGLVQAGGSLRLTCAASGSISAVAAMGWYRQAPGKEREFAASVNWGTNTNYADSLKGRFTISRDNAINTLYLQMNSLNPEDTAVYYCGVLPDWETRHDYWGHGTQVTVSS | low polyreactivity
25 | QVQLQESGGGLVQAGGSLRPSCAASGNIFVPFKMGWYRMAPGKERELVASINRGSTTNYADSVKGRFTISRDNAKNTVYLQMISLKPEDTAVYYCAAIAYPDIPTYLDYDSDYFYWDQGTQVTVSS | high polyreactivity
26 | QVQLQESGGGLVQAGGSLRQSCAASGYIFPYYSMGWYRQAPGKERGLVACIAAGTTTNYADSVKGRFTISRDNAKNTVYLQMISLKPEDAAVYYCAALNAFNTGHWYWGQGTQVTVSS | low polyreactivity
27 | QVQLQESGGGLVQAGGSLRQSYAASGYIFPSLAMGWYRQAPGKEREFVAAIGRGSTNNYADSVKGRFTISRDNAIYTAYQQMNSLKPEDTAVYYCGAAASPLTRHLYWGQGTQVTVSS | low polyreactivity
28 | QVQLQESGGGLVQAGGSMRLSCAASGYNTIEVTRACFARRRAKNANLLPLLITVVLPIKRIAYNTISRDNAKNTVYLQMNSLKPEDTAVYNCAANTIGTDLYEYWGQGTQATVSS | low polyreactivity
29 | QVQLQESGGGLVQAGGSPRLSCAASDNIFPDSGMCWYRQAPGKERELVATIGFGATRNYADSVKGRFTISRDNAKNTVYLQMNSLQPEDTAVYYCAADPLNYQYFCYWGQGTQVTVSS | low polyreactivity
30 | QVQLQESGGGLVQAGGSQRLSCAASGNISVTGFMGCYRQAPGKERELVASIGIGGTTYYADSVKGRFSISRDNEKNTVYLQMNSLKPEDTAVYYCAARYLYYAYSYWGQGTQVTVSS | low polyreactivity
31 | QVQLQESGGGLVQAGGSQRLSCAASGYIFYFQYMGWYRQAPGKEREFVAAISDGANTNYADSVKGRFTISRDNAKNTEYLQMNSLKPEDTAVYYCAVYADENYYYIYWGQGTQVTVRS | low polyreactivity
32 | QVQLQESGGGLVQAGGSQRLSCSASGYIFYFQYMGWYRQAPGKEREFVAAISDGANTNYADSVKGRFNISRDNAKNTEYLQMNSLKPEDTAVYYCAARSFFKMYYWGQGTQVTVSS | low polyreactivity
33 | QVQLQESGGGLVQAGGSRRLSCAASGTIFTARFMGWYRQATGKERELVSTITDGGNTNHAESVKCRFTISRDNAKNTGSLQMNSLKPEYAAVYYCAAGEVDNDTLLYWGQGSQVTVSS | low polyreactivity
34 | QVQLQESGGGLVQASGSLRLSCAASGNIFPDYVMGWYRLAPGKEREFVANITGGSTTNYADSVKGRFTISRDNAKNTVYLQMNSLKPEDTAVYYCAVNFGTVVLYLYWGQGTQVTVSS | high polyreactivity
35 | QVQLQESGGGLVQEGGSLRLSCAASGNISPPADMGWYRQAPGKERELVASIGTGGTTNYADSVKGRFTISRDNAKNTVYLQMNSLKPDDTAVYYCAAVRYEYNPYDYWGEGTQVTVSS | low polyreactivity
36 | QVQLQESGGGLVQVGGSLRLSCAASGTIFIYGFLGWNRQAPGKERELVASINLGGITNYADSVKGRFTISRDNATNTVYLQMISLKPEDTAVYYCAAYVVTGQNYGYWGQGTQVTVSS | low polyreactivity
37 | QVQLQESGGGLVRAGGSLRLSCAASGYISTSIAMGWYRQAPGKERELVASFGGGAITNYADSVKGFTISRDNGKNSVYLQMNSLKPEDTAVYYCAVYHGDRGYYSYWGQGTQVTVSS | low polyreactivity
38 | QVQLQESGGGMEQAGGSLRLSCAASGYISWADYMVWYRQAPGKERELVAGIGYGSTTYYADSVKGRFTISRANAKNTAYLQMNSLKPEDTAVYYCAVGWYRDTAYKYWGQGTQVTVSS | low polyreactivity
39 | QVQLQESGGGMVQAGGSLLWCAASGTISYNREMGWYRQAPGKERELVAGIGVGTITYYADSVKGRFTIIRDNAKNTVYLQMNSLKPEDTAVYYCAAHIDGIDSHAYCGQGTQVTVSS | low polyreactivity
40 | QVQLQESGGGMVQAGGSLRLSCAASGYISWADYMGWYRQAPGKERELVAGIGYGSTTYYADSVKGRFTISRDNAKNTAYLQMNSLKPEDTAVYYCSVGWYRDTAYKYWGQGTQVTVSS | low polyreactivity
41 | QVQLQESGGGMVQAGGSLRLSCAASGYISWADYMVWYRQAPGKERELVAGIGYGSTTYYADSVKGRFTISRANAKNTAYLQMNSLKPEDTAVYYCAVGWYRDTAYKYWGQGTQVTVSS | low polyreactivity
42 | QVQLQESGGGPVLAGGSLRLSCAASGTIFVRLDMGWYRPAPGKEREFVATIGSGSSTYYADSVKGSFTISRDNVKNTVYLQMNSLQPEDTAVYYCAVSAAEQSRHYYWDQGTQVTVSS | low polyreactivity
43 | QVQLQESGGLVQAGGSLRLSCAASGSISGRNVMGWYRQAPGKEREFVASITDGSSTNYADSVKGRFTISRDNAKNTVYLQMNSLKPKDTAVYYCAAYAQRAKSFGYWGRGTQVTVSS | low polyreactivity
44 | QVQLQESGGRLVQAGGSMRLSCAASGTISDSGLMGWYRQAPGKERELVAGISSGGITNYADSVKGRFTISRDNAKNTVSLQMNSLKPEDTAVYWGQGTQVTVSS | low polyreactivity
